Each block holds one molecule with its values, some of them ahead of it.
Assays:
[1] = target: TRFH domain of TRF2 (TRF2 dimerization domain) (human); test: ITC
[2] = target: TRF2 (Telomeric Repeat-binding Factor 2), full length (human); test: ITC
[3] = target: TRF2 (Telomeric Repeat-binding Factor 2), full length (human); test: SAXS
[4] = target: TRF2 (Telomeric Repeat-binding Factor 2), full length (human); test: SEC-MALS + ITC
[5] = target: TRF2 (Telomeric Repeat-binding Factor 2), full length (human); test: ITC; remark: listed apart in the source
RAP1 = target: T1, RAP1 (human, UniProt Q9NYB0 1-399); test: ITC
T1 sequence: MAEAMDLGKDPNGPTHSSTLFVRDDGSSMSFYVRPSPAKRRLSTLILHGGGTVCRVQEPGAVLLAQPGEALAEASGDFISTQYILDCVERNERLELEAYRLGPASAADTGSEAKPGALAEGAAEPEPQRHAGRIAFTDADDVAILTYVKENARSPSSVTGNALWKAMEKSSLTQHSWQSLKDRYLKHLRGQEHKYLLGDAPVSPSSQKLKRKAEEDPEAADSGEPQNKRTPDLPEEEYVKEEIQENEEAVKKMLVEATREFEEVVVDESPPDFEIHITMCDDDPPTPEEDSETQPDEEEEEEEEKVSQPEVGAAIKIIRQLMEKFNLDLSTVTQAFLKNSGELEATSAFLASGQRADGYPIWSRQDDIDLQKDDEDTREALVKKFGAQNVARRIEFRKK

Molecule: TRF2 (Telomeric Repeat-binding Factor 2), full length (natural protein)
- stoichiometry N [3]: 2
- stoichiometry N [4]: 2

B2: T2-S1-S2 (T2AG3 duplex) (dsDNA)
DNA 1: CTAGGGTTAGGGTTAG
DNA 2: CTAACCCTAACCCTAG
- binding result (RAP1): no binding

The remaining lines, values ahead:

- Kd [1]: 59 nM
- Kd [2]: 46 nM
Molecule: Apollo-YLP peptide (Apollo residues 494-511)

- KD of the high affinity site (two-independent sites model) [5]: < 1 nM
- KD of the lower affinity site (two-independent sites model) [5]: 500 nM
B1: RAP1 (Repressor Activator Protein 1), full length (natural protein)
chain: T1 sequence
